From paper PMC5356265, “Increased enzymatic hydrolysis of sugarcane bagasse by a novel glucose- and xylose-stimulated β-glucosidase from Anoxybacillus flavithermus subsp. yunnanensis E13^T” (BMC Biochemistry, 2017)

Test system: T1, O=[N+]([O-])c1ccc(O[C@@H]2O[C@H](CO)[C@@H](O)[C@H](O)[C@H]2O)cc1
T1 construct: full-length GH1 enzyme, no signal peptide; gene 1347 bp (448 residues deduced), 52 kDa; pET22b in E. coli BL21 (DE3), heat treatment and Ni-NTA purified
Assay: p-nitrophenol release at A410, Lineweaver-Burk
Format: biochemical, Anoxybacillus flavithermus subsp. yunnanensis
Conditions: Na2HPO4-citric acid buffer pH 7.0, 60 °C, no added sugar

BglP (Bglp) (Anoxybacillus flavithermus subsp. yunnanensis)
Km: 290 ± 10 µM
